Measured values from the DeepSol protein solubility set.

assay: soluble on expression in E. coli; label from the status in PepcDB or PDB records

Sequence | soluble on expression in E. coli
MEMKQISETTLKITISMDDLEERGMELKDFLIPQEKTEEFFYSVMDELDLPDNFKDSGMLSFRVTPRKDRLDVFVTKSEINKDINLEDLAEFGDMSQMTPEDFFKSLEQSMREKGDVKAHEKLEKIEEIMEDVVEATLANQSEAADPSTNHESEPLDYVHYVLDFSTITEAVAFAKTIDFSIEASELYKGSNCYHMTILLDVQQQPSYFANVMYARLIEHANPGSKTRAYLQEHGLQLMLDGAVEQLQKIELG | not soluble
MEMMPNIEELRKMRKNLGISQKDLAKVTGVSQSYIARLEKGTINPTYSKIKAIYEYLTKSSEKASTMVLTCDRIMTRNVVVCRSDESILNALNIMRDKGFSQLPVVNEENKVIGTIAENNINDMLLKGMSIDSLRGLTVRRVMSDVLPQVDRNTPVNIIYQLLKYSNAVLVIEAGNLVGIITKADILKTVAGMI | not soluble
MENELQDFPEPNYNVHAFYYVWYGSPQFDGKYVHWDHPLLPHWDPKVASSYSTGRHQPPEDIGANFYPALGPYSSRDPAVLEEHMRQLRMAAVGVLAVSWYPRSMKDDNGEEIDSLLPLILDAADKYQLKVLYNLYVFKNVICINKYV | not soluble
MENNNSPTNAAEHNQKIDPRNYDDVLSVAASIREQVGEDVARADLGIICGSGLGPIGDTVQDATILPYSKIPGFPTTHVVGHKGNMIFGKLGGKKVVCLQGRFHPYEHNMDLALCTLPVRVMHQLGIKIMIVSNAAGGINAVLRHGDLMLIKDHIFLPALAGFSPLVGCNDPRFGARFVSVHDAYDKQLRQLAIDVGRRSDMTLYEGVYVMSGGPQYESPAEVSLFKTVGADALGMSTCHEVTVARQCGIKVLGFSLITNIANLDADASVEVSHEEVMDIAQQAGERASRFVSDIITEITL | not soluble
MENQVEVMTYAHLKEIMQALEANEAITEDTKVFIDTGWDSVQEVAPDAVSIEKVAKFTVADVLTNESFAGYSLEEKAEKMNAEGDLETAIIIRNLY | not soluble
MENRRIVIITGANSGIGKEAAQRFANEGDHVIMACRNIAFSRKVQHDIIAASGNDHVDLLELDVSSFASIRTFCTTFNSQYKRLDILIHNAAYFNHGEPYRLSPDGIELTFATNVFGPYLLTSLLRDRLKQSEDPRILHAGSNIIKHFFDPKQTFDLDLLQGNHGTKSYSVYKMYCQSKMALMLLTFQMAEVFADDGIKVNALQINGAKMSKRTIQKVKPWWRPIAWGQNLFFPPPSYMADKYFTICTSDKYKQTTGKLFNDKLEIMEPSPTHYPGFFKQMKLLLGSNVYPAYENTNIREKLWALCKELVGELEHHHHHH | not soluble
MENTVLNLDSDVIHACEAIFQPIRLVYTHAQTPDVSGVSMLEKIQQILPQIAKNAESAEQLRRVPDENIKLLKEIGLHRAFQPKVYGGLEMSLPDFANCIVTLAGACAGTAWAFSLLCTHSHQIAMFSKQLQDEIWLKDPDATASSSIAPFGKVEEVEGGIILNGDYGWSSGCDHAEYAIVGFNRFDADGNKIYSFGVIPRSDYEIVDNWYAQAIKSSGSKMLKLVNVFIPEYRISKAKDMMEGKSAGFGLYPDSKIFYTPYRPYFASGFSAVSLGIAERMIEAFKEKQRNRVRAYTGANVGLATPALMRIAESTHQVAAARALLEKTWEDHRIHGLNHQYPNKETLAFWRTNQAYAVKMCIEAVDRLMAAAGATSFMDNSELQRLFRDAHMTGAHAYTDYDVCAQILGRELMGMEPDPTMV | soluble
MEPEEERIRYSQRLRGTMRRRYEDDGISDDEIEGKRTFDLEEKLHTNKYNANFVTFMEGKDFNVEYIQRGGLRDPLIFKNSDGLGIKMPDPDFTVNDVKMCVGSRRMVDVMDVNTQKGIEMTMAQWTRYYETPEEEREKLYNVISLEFSHTRLENMVQRPSTVDFIDWVDNMWPRHLKESQTESTNAILEMQYPKVQKYCLMSVRGCYTDFHVDFGGTSVWYHIHQGGKVFWLIPPTAHNLELYENWLLSGSQGDIFLGDRVSDCQRIELKQGYTFVIPSGWIHAVYTPTDTLVFGGNFLHSFNIPMQLKIYNIEDRTRVPNKFRYPFYYEMCWYVLERYVYCITNRSHLTKEFQKESLSMDLELNGLESGNGDEEAVDREPRQVHLTHFELEGLRCLVDKLESLPLHKKCVPTGIEDEDALIADVKILLEELANSDPKLALTGVPIVQWP | soluble
MEPLLSLKSVSKSYDDLNILDDIDIDIESGYFYTLLGPSGCGKTTILKLIAGFEYPDSGEVIYQNKPIGNLPPNKRKVNTVFQDYALFPHLNVYDNIAFGLKLKKLSKTEIDQKVTEALKLVKLSGYEKRNINEMSGGQKQRVAIARAIVNEPEILLLDESLSALDLKLRTEMQYELRELQSRLGITFIFVTHDQEEALALSDFLFVLKDGKIQQFGTPTDIYDEPVNRFVADFIGESNIVEGRMVRDYVVNIYGQDFECVDMGIPENKKVEVVIRPEDISLIKAEEGLFKATVDSMLFRGVHYEICCIDNKGYEWVIQTTKKAEVGSEVGLYFDPEAIHIMVPGETEEEFDKRIESYEEVDNA | not soluble
MEQKNEEIEAIDDRMIAGVEVNFQKMRRSKHKTEERLTSGQVDAFAQKLFEAYPDGSLEGFLDIDDVQKKKLDEQRQEFTGDYPIVQPVLDGSRELMVVLRYNPLYHAVEIYDPVQIYDSEGIPMVVKPIREQIVNLFAHLFLDKIRLIFDIEYEQQADKCSDRLRAVGAMMAIALGYNPAAMDYNLKGISKLVKKILNSESPDFKKFEKADIGTLNAKYSGQNRVTMFIGNNGETLLATRNVYGLEKHALKTGLGKMDKNGHVVERESFLEEEFHDETIYKQFHAPDLGMGKPDNVNAIKLFHVDYRDYDLQNANGLERPIYLEPYKPVQSDCFAVPNLTSTLDRVSSNGELLKYVNEVMQSITPYTPYHLHAQSVEYLRYTPRHMNMCINPLQAIRAWALLANMADGKTNTDLLNFVGKYTYPGQLENNKMMNDDILNLHFEAEKLFEGCVRVFTELPKHLWHNEDIRIIQNSYYGGKSLRGAMQHHCFATDPDGLYSCHRINEEVALSTHGAVNFVVPENHAPNWRASIALVSAMDCTFYWKTYAKPKLMDNFNFVNEQYGASKCVGYFAHADFKFFEDIYCLESRIPGVRLYITFESPDKMDSKKEFMSKLHEKIQTCGDWHTTFDSPVFLPLCTTSTPLSLYAHAKASGLSRIFSSEKSELLEMKSIPARGGARQFSTLYDHYHKTVFEVHGSDPKVENFMRKRPRRMFDQFSPARAHQCVDDSMAELHGKYQMKNPTKEFNNKMNINPLLTYRENHLNHDEPSFEWLHENHEFDLKDPKALMFNKPFYYVMTRALVGKNQLIVCAGYFNNTTWVKQQ | not soluble
MEQQFILRLHESIKHVVDLGNSTIDICDDRSVVLTHNNKKYPGIVVRLPCIVESQKTMDSRQHYKVADISTLVVVYPDDSFDFDKEREMYELSGLSPPLKYVKARRFRKKSSKIEYVEEIEKKVNDLLEKDMKARSVEVVAKEEKETSDDLDVLAAEIENKLVDNAEAHKEEVQSRPDEIGEKKEEQPRNEEIERLEKGIEEKRRQMESALNPILQKRFESQLNVLLKELEDVKKGMEME | soluble
MERCGWVSQDPLYIAYHDNEWGVPETDSKKLFEMICLEGQQAGLSWITVLKKRENYRACFHQFDPVKVAAMQEEDVERLVQDAGIIRHRGKIQAIIGNARAYLQMEQNGEPFVDFVWSFVNHQPQVTQATTLSEIPTSTSASDALSKALKKRGFKFVGTTICYSFMQACGLVNDHVVGCCCYPGNKP | not soluble
MERGEIWLVSLDPTAGHEQQGTRPVLIVTPAAFNRVTRLPVVVPVTSGGNFARTAGFAVSLDGVGIRTTGVVRCDQPRTIDMKARGGKRLERVPETIMNEVLGRLSTILT | soluble
MERILLVLDDTGRGEIAFQKLKKLAEDGLRGEVYILYIREMEVPPFVPEEKELAAYHRLMTQSMKKLEGFKNQLEKAGLKVSDVSVVFGKYADRLLLVEKQIKPDLIVVGFKGGLLKRVIGGFFGKDPCEVLLKKSKASLLICRG | not soluble
MERLHLSWEDLLRLVRRLAEALSGEPFDLVLGVARGGLIPTALLAQALGARNILTAAVMFYEGEEALPEPVFLQFPPDVLLFGKRVLVVDDVWDSGRTAFAVKARVRRAGGVPVVATLHFKPGRNRVPDRPDFYAEETAAWVVYPWALEAWPKG | soluble
MERVAIFIDGSNLYKGLVQHLGSDYRLNFVEFITLLTAGRKLLRAYYYNAPLPPEDPAAKAHQSFLNYLKRVPYVTVRLGRLERRADGFVEKGVDIQIAVDMLRLAFVNAYDIAVLVSGDGDFAEVVRVVQDLGKQVENTTFHALSSHRLAQQADHFYPLDDFPWERLRAQVSPASPEEEA | soluble
MERVLITGGAGFIGSHLVDDLQQDYDVYVLDNYRTGKRENIKSLADDHVFELDIREYDAVEQIMKTYQFDYVIHLAALVSVAESVEKPILSQEINVVATLRLLEIIKKYNNHIKRFIFASSAAVYGDLPDLPKSDQSLILPLSPYAIDKYYGERTTLNYCSLYNIPTAVVKFFNVFGPRQDPKSQYSGVISKMFDSFEHNKPFTFFGDGLQTRDFVYVYDVVQSVRLIMEHKDAIGHGYNIGTGTFTNLLEVYRIIGELYGKSVEHEFKEARKGDIKHSYADISNLKALGFVPKYTVETGLKDYFNFEVDNIEEVTAKEVEMS | not soluble
MERVRRASHAGSWYTNNARKLDEELDGWLRAAGLTKSPDVRAVIAPHAGYSYSGRCAAYAFGNIDPTNISRVFLLGPSHHYYTPKCALTRATIYSTPIGDLPVDHEVIEELNATGKFDFMDLSVDEAEHSMEMHLPYLSKVFQGHNVKVVPILVGALNSQNEAMYGQLLSKYLDDPKNFFSISSDFCHWGTRFSYTYYDKSHGAIHKSIEALDRMGMEIIETGNPDAFKQYLQEYENTICGRHPISVFLSMLKHCLTKIKIGFVRYEQSSQCKSMRDSSVSYASAAAKVDTPAEEEKD | soluble
MESCITVIGERDVVLGFRLLGIQHTIIAEGKDLLKKFLEVFQNPQCNIIIVSENVKNMMDKRTLRSVEISSKPLVVFIPLPGVREEETIEEMAKRILGIDIGNVLEHHHHHH | not soluble
MESEQCPVGKIPHIRMDDGAGIEEFYTFGRILGQGSFGMVFEAIDKETGAKWAIKKVNKEKAGSSAMKLLEREVSILKTVNHQHIIHLEQVFESPQKMYLVMELCEDGELKAVMDQRGHFSENETRLIIQSLASAIAYLHNKDIVHRDLKLENIMVKSSFIDDNNEMNLNIKVTDFGLSVQKHGSRSEGMMQTTCGTPIYMAPEVINAHDYSQQCDIWSIGVIMFILLCGEPPFLANSEEKLYELIKKGELRFENPVWESVSDSAKNTLKQLMKVDPAHRITAKELLDNQWLTGNTLSSARPTNVLEMMKEWKNNPESDEETNTDEETEQSAVYSPSANTAKQPTNAAKKPAAESVGMTSSNSSSSKLLSAESKAEPEKSSETVGHASVAKTTLKSTTLFRGKKRL | soluble
MESHENPGMFSRLLRLFHRENGDQGETRPRQKEFGILSYEKGRMKSFWGRHVSAGKTSSQSCNITNHMKNMNKLEDMKFYIRKINAEREELFRILDIDMNTDLNYSIRHTHLLKKCNQLKKKVRMLLNENRKLLVEQADQEASFGEEKSSVMRPARTYIPSAKQQQV | not soluble
MESKVERYVENYVVTKNTMALLPVILSEKKIVTRVVEMNDSFFVFQKPLDIIERSCRKHGSSFLGRKEGTKELTHITHKAPIAISPADQLYFFPTYSYSRKECAWLSHFYIESNKELKDGNLIIRFINGFAVKLEISKTSFENQQNRTAKLRTEYEDRRKKQGNPCFKEVDKKEESTLRPAYESVYFVKEGEV | not soluble
